Measured values reported in patent US20140105889A1 (published 2014).

T1: human FcγRIIa type H (human, UniProt P12318 36-217)
T1 construct: also called FcgRIIaH; FcγRIIa(H)
T1 sequence: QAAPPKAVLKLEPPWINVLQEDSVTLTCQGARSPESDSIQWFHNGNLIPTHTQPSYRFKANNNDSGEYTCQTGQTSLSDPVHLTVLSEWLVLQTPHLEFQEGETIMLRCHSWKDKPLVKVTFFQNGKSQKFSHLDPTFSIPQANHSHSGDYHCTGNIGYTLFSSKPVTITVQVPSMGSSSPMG

T2: human FcγRIIb (human, UniProt P31994 43-217, limits assumed)
T2 construct: also called FcgRIIb; FcγIIB
T2 sequence: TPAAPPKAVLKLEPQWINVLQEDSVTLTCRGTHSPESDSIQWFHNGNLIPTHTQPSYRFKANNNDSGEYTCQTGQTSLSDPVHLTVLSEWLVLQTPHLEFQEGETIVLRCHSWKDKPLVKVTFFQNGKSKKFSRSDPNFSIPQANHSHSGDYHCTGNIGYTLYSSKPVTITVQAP


Legend:
Assay in all cases: SPR (Biacore); binding amount divided by that of control IL6R-BF648/IL6R-L, x100
human FcγRIIa type H = molecular target: T1, human FcγRIIa type H
Method: (§1) According to the following method, relative binding activities were calculated for the results of analyzing interactions with the respective FcγRs.

human FcγRIIb = molecular target: T2, human FcγRIIb
Method: as §1

human FcγRIa = molecular target: T3, human FcγRIa (human, UniProt P12314 16-292, limits assumed)
T3 construct: also called FcgRIa; CD64
T3 sequence (P12314 16-292 limits assumed): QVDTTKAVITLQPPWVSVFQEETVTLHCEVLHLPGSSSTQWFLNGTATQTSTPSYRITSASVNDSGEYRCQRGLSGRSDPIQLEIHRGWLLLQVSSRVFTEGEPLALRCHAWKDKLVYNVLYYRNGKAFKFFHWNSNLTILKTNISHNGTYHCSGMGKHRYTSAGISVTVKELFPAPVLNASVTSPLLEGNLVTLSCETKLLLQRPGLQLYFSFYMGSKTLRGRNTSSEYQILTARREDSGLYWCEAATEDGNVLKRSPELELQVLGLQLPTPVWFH
Method: as §1

Binder | relative binding activity (human FcγRIIa type H) | relative binding activity (human FcγRIIb) | relative binding activity (human FcγRIa)
IL6R-BP204/IL6R-L (antibody, human IgG1, The common L chain is IL6R-L; copies: 2 + 2) heavy: QVQLQESGPGLVKPSETLSLTCAVSGHSISHDHAWSWVRQPPGEGLEWIGFISYSGITNYNPSLQGRVTISRDNSKNTLYLQMNSLRAEDTAVYYCARSLARTTAMDYWGEGTLVTVSSASTKGPSVFPLAPSSKSTSGGTAALGCLVKDYFPEPVTVSWNSGALTSGVHTFPAVLQSSGLYSLSSVVTVPSSSLGTQTYICNVNHKPSNTKVDKKVEPKSCDKTHTCPPCPAPDLLGGDSVFLFPPKPKDTLMISRTPEVTCVVVDVSHEDGEVKFNWYVDGVEVHNAKTKPREEQYNSTYRVVSVLTVLHQDWLNGKEYKCKVSNAALPRPIEKTISKAKGQPREPQVYTLPPSRDELTKNQVSLTCLVKGFYPSDIAVEWESNGQPENNYKTTPPVLDSDGSFFLYSKLTVDKSRWQQGNVFSCSVMHEALHNHYTQESLSLSP light: DIQMTQSPSSLSASVGDRVTITCRASQDISSYLNWYQQKPGKAPKLLIYYTSRLHSGVPSRFSGSGSGTDFTFTISSLQPEDIATYYCQQGNTLPYTFGQGTKVEIK | 137 % of IL6R-BF648/IL6R-L | 165 % of IL6R-BF648/IL6R-L | 110 % of IL6R-BF648/IL6R-L
IL6R-BP205/IL6R-L (antibody, human IgG1, The common L chain is IL6R-L; copies: 2 + 2) heavy: QVQLQESGPGLVKPSETLSLTCAVSGHSISHDHAWSWVRQPPGEGLEWIGFISYSGITNYNPSLQGRVTISRDNSKNTLYLQMNSLRAEDTAVYYCARSLARTTAMDYWGEGTLVTVSSASTKGPSVFPLAPSSKSTSGGTAALGCLVKDYFPEPVTVSWNSGALTSGVHTFPAVLQSSGLYSLSSVVTVPSSSLGTQTYICNVNHKPSNTKVDKKVEPKSCDKTHTCPPCPAPDLLGGDSVFLFPPKPKDTLMISRTPEVTCVVVDVSHEDGEVKFNWYVDGVEVHNAKTKPREEQDNSTYRVVSVLTVLHQDWLNGKEYKCKVSNKALPRPIEKTISKAKGQPREPQVYTLPPSRDELTKNQVSLTCLVKGFYPSDIAVEWESNGQPENNYKTTPPVLDSDGSFFLYSKLTVDKSRWQQGNVFSCSVMHEALHNHYTQESLSLSP light: DIQMTQSPSSLSASVGDRVTITCRASQDISSYLNWYQQKPGKAPKLLIYYTSRLHSGVPSRFSGSGSGTDFTFTISSLQPEDIATYYCQQGNTLPYTFGQGTKVEIK | 108 % of IL6R-BF648/IL6R-L | 167 % of IL6R-BF648/IL6R-L | 97 % of IL6R-BF648/IL6R-L
IL6R-BP210/IL6R-L (antibody, human IgG1, The common L chain is IL6R-L; copies: 2 + 2) heavy: QVQLQESGPGLVKPSETLSLTCAVSGHSISHDHAWSWVRQPPGEGLEWIGFISYSGITNYNPSLQGRVTISRDNSKNTLYLQMNSLRAEDTAVYYCARSLARTTAMDYWGEGTLVTVSSASTKGPSVFPLAPSSKSTSGGTAALGCLVKDYFPEPVTVSWNSGALTSGVHTFPAVLQSSGLYSLSSVVTVPSSSLGTQTYICNVNHKPSNTKVDKKVEPKSCDKTHTCPPCPAPELLGDDSVFLFPPKPKDTLMISRTPEVTCVVVDVSDEDGEVKFNWYVDGVEVHNAKTKPREEQYNSTYRVVSVLTVLHQDWLNGKEYKCKVSNKALPRPIEKTISKAKGQPREPQVYTLPPSRDELTKNQVSLTCLVKGFYPSDIAVEWESNGQPENNYKTTPPVLDSDGSFFLYSKLTVDKSRWQQGNVFSCSVMHEALHNHYTQESLSLSP light: DIQMTQSPSSLSASVGDRVTITCRASQDISSYLNWYQQKPGKAPKLLIYYTSRLHSGVPSRFSGSGSGTDFTFTISSLQPEDIATYYCQQGNTLPYTFGQGTKVEIK | 279 % of IL6R-BF648/IL6R-L | 187 % of IL6R-BF648/IL6R-L | 57 % of IL6R-BF648/IL6R-L
IL6R-BP214/IL6R-L (antibody, copies: 2 + 2) heavy: QVQLQESGPGLVKPSETLSLTCAVSGHSISHDHAWSWVRQPPGEGLEWIGFISYSGITNYNPSLQGRVTISRDNSKNTLYLQMNSLRAEDTAVYYCARSLARTTAMDYWGEGTLVTVSSASTKGPSVFPLAPSSKSTSGGTAALGCLVKDYFPEPVTVSWNSGALTSGVHTFPAVLQSSGLYSLSSVVTVPSSSLGTQTYICNVNHKPSNTKVDKKVEPKSCDKTHTCPPCPAPDYLGDDSVFLFPPKPKDTLMISRTPEVTCVVVDVSHEDPEVKFNWYVDGVEVHNAKTKPREEQDNSTYRVVSVLTVLHQDWLNGKEYKCKVSNDALPKPIEKTISKAKGQPREPQVYTLPPSRDELTKNQVSLTCLVKGFYPSDIAVEWESNGQPENNYKTTPPVLDSDGSFFLYSKLTVDKSRWQQGNVFSCSVMHEALHNHYTQESLSLSP light: DIQMTQSPSSLSASVGDRVTITCRASQDISSYLNWYQQKPGKAPKLLIYYTSRLHSGVPSRFSGSGSGTDFTFTISSLQPEDIATYYCQQGNTLPYTFGQGTKVEIK | 285 % of IL6R-BF648/IL6R-L | 174 % of IL6R-BF648/IL6R-L | 36 % of IL6R-BF648/IL6R-L
